This note sets out measurements from US20250281533A1 (LG CHEM, published 2025).

To fix the notation:
T1: Human MUC1 protein (human, UniProt P15941 1041-1153, limits assumed)
T1 construct: also called mucin1 antigen; human mucin1
T1 sequence: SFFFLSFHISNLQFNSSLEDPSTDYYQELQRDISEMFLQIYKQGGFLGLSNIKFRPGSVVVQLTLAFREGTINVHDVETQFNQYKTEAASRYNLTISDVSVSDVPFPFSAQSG

T2: C subunit of human MUC1 expressed in HEK293T cells (HEK293T-v1) (human, UniProt P15941 1098-1255, limits assumed)
T2 construct: domain: C subunit of MUC1; also called MUC1-C
T2 sequence (looked up): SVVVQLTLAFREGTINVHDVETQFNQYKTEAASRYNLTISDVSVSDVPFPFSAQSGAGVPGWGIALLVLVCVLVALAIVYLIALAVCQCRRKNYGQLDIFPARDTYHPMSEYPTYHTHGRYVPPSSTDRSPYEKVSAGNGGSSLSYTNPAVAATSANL

B1: scFv-Fc antibody including the scFv 2447_3A08 (Fc fusion)
scFv: EVQLVQSGAEVKKPGASVKVSCKASGYTFTSYGISWVRQAPGQGLEWMGWISAYNGNTNYAQKLQGRVTMTTDTSTSTAYMELRSLRSDDTAVYYCARDRATIFGVVTPFDYWGQGTLVTVSSGGGGSGGGGSGGGASSYELTQDPAVSVALGQTVRITCQGDSIRSYSASWYQQKPGQAPRLVIYGKNNRPSGIPDRVSGSTSGNTASLTVTGAQAEDEADYYCNSRDSSGNRVVFGGGTQLTVL
notes: scFv-Fc format as used in the Biacore assay; not shown: Fc part (with any hinge or linker) of the scFv-Fc
B2: scFv-Fc antibody including the scFv 2447_3A01 (Fc fusion)
scFv: EVQLLESGGGLVQPGGSLRLSCAASGFTFDDYAMHWVRQAPGKGLEWVSGISWNSGSIVYADFVKGRFTISRDNAKNSLYLQMNSLRAEDTALYYCAKDISSGWYPGTFDYWGQGTLVTVSSGGGGSGGGGSGGGASSYELTQDPAVSVALGQTVRITCQGDSLRSYYASWYQQKPGQAPVLVIYGKNNRPSGIPDRFSGSSSGNTASLTVTGAQAEDEADYYCSSRDSSDDVVFGGGTQLTVL
notes: as for B1
B3: scFv-Fc antibody including the scFv 2447_3C08 (Fc fusion)
scFv: EVQLLESGGGLVQPGGSLRLSCAASGFTFDDYAMHWVRQAPGKGLEWVSGISWNSGSIGYADSVKGRFTISRDNAKNSLYLQMNSLRAEDTALYYCAKDRGSGYEGNYYGMDVWGQGTLVTVSSGGGGSGGGGSGGGASSYELTQDPAVSVALGQTVRITCQGDSLRSYYASWYQQKPGQAPVLVIYGKNNRPSGIPDRFSGTTSGNTASLTITGAQAEDEADYYCNSRDSSGNHYVFGTGTKVTVL
notes: as for B1
B4: scFv-Fc antibody including the positive control scFv G03 (Fc fusion)
scFv: EVQLVQSGAEVKKPGATVKISCKVSGYTFTSYWMHWVQQAPGKGLEWIGYINPGTGYIEYNQKFKDRVTITADKSTDTAYMELSSLRSEDTAVYYCASSTAPFDYWGQGTLVTVSSGGGGSGGGGSGGGASEIVLTQSPGTLSLSPGERATLSCKASQDIKSYLSWYQQKPGQAPRLLIYYATRLADGIPDRFSGSGSGTDFTLTISRLEPEDFAVYYCLQYDESPYTFGQGTKLEIK
notes: not shown: Fc part (with any hinge or linker) of the scFv-Fc
B5: scFv-Fc antibody including the scFv 2447_3A09 (Fc fusion)
scFv: EVQLLESGGGLVQPGRSLRLSCAATGFTFDDYAMHWVRQAPGKGLEWVSGISWNSGSIGYADSVKGRFTISRDNAKNSLYLQMNSLRAEDTASYYCAKDVSSGWYWYAFDIWGQGTLVTVSSGGGGSGGGGSGGGASSYELTQDPAVSVALGQTVRITCQGDSLRSYYASWYQQKPGQAPVLVIYGKNNRPSGIPGRFSGSSSGNTASLTVTGAQAEDEADYYCNSRDSGGSVVFGGGTKLTVL
notes: as for B1
B6: scFv-Fc antibody including the scFv 2447_2H08 (Fc fusion)
scFv: EVQLVQSGAEVKKPGASVKVSCKASGYTFTNYGISWVRQAPGQGLEWMGWISAYNGNTNYAQKLQGRVTMTTDTSTSTAYMELRSLRSDDTAVYYCARDPHILTGYYRGGWFDPWGQGTTVTVSSGGGGSGGGGSGGGASSYELTQDPAVSVALGQTVTITCQGDSLRTSYAGWLQQKPGQAPVLVLYGKTSRPSGIPDRFSGSTSGNTASLTITGAQAEDEAEYFCHSRDSNDNYLEVVFGGGTKLTVL
notes: as for B1
B7: scFv-Fc antibody including the scFv 2447_3H08 (Fc fusion)
scFv: EVQLLESGGGLVQPGRSLRLSCAASGFTFDDYAMHWVRQAPGKGLEWVSGISWNSGSIDYADSVKGRFTISRDNSKNTLYLQMNSLRAEDTAVYYCARDRSSGWYTGSFDYWGQGTLVTVSSGGGGSGGGGSGGGASSYELTQDPAVSVALGQTVRITCQGDSLRSYYASWYRQKPGQAPVLVIYGKNNRPSGIPDRFSGSSSGNTASLTIIGAQAEDEADYYCQSRDSSDNRVLFGGGTKVTVL
notes: scFv-Fc format as used in the Biacore assay; not shown: Fc part (and any hinge or linker) of the scFv-Fc
B8: scFv-Fc antibody including the scFv 2447_3H02 (Fc fusion)
scFv: EVQLLESGGGLVQPGRSLRLSCAASGFTFDDYAMHWVRQAPGKGLEWVSGISWDSGSIGYADSVKGRFTISRDNAKNSLYLQMNSLRAEDTALYYCAKDVSSGWYWYAFDIWGQGTLVTVSSGGGGSGGGGSGGGASSYELTQDPAVSVALGQTVRITCQGDILRSYYASWYQQKPGQAPVLVIYGKNNRPSGIPDRFSGSSSGNTASLTITGAQAEDEADYYCNSRDSSGNRVVFGGGTKLTVL
notes: as for B7
B9: scFv-Fc antibody including the scFv 2447_3B07 (Fc fusion)
scFv: QVQLVESGGVVVQPGGSLRLSCAASGFTFDDYAMHWVRQAPGRGLEWVSLTSWDGGSTYYADSVKGRFTISRDNSKNSLYLQMNSLRAEDTALYYCAKDHSSGWYNGGMDVWGQGTMVTVSSGGGGSGGGGSGGGASSYELTQDPAVSVALGQTVRITCQGDSLRSYYASWYQQKPGQAPVLVIYGKNNRPSGIPDRFSGSSSGNTASLTITGAQAEDEADYYCNSRDSSGNHVVFGGGTKLTVL
notes: as for B1
B10: scFv-Fc antibody including the scFv 2447_3A12 (Fc fusion)
scFv: EVQLVQSGAEVKKPGASVKVSCKASGYTFTSYGISWVRQAPGQGLEWMGWISAYNGNTNYAQKLRGRVTMTTDTSTSTAYMELRSLRSDDTAVYYCARDPHILTGYYRGGWFDPWGQGTLVTVSSGGGGSGGGGSGGGASSYELTQDPAVSVVLGQTVRITCQGDSLRSYYASWYQQKPGQAPVLVIYGKNNRPSGIPDRFSGSSSGNTASLTITGAQAEDEADYYCNSRDSSGNHRVFGGGTKLTVL
notes: as for B1
B11: scFv 2447_3A08 (scFv)
scFv: EVQLVQSGAEVKKPGASVKVSCKASGYTFTSYGISWVRQAPGQGLEWMGWISAYNGNTNYAQKLQGRVTMTTDTSTSTAYMELRSLRSDDTAVYYCARDRATIFGVVTPFDYWGQGTLVTVSSGGGGSGGGGSGGGASSYELTQDPAVSVALGQTVRITCQGDSIRSYSASWYQQKPGQAPRLVIYGKNNRPSGIPDRVSGSTSGNTASLTVTGAQAEDEADYYCNSRDSSGNRVVFGGGTQLTVL
B12: scFv 2447_3A01 (scFv)
scFv: EVQLLESGGGLVQPGGSLRLSCAASGFTFDDYAMHWVRQAPGKGLEWVSGISWNSGSIVYADFVKGRFTISRDNAKNSLYLQMNSLRAEDTALYYCAKDISSGWYPGTFDYWGQGTLVTVSSGGGGSGGGGSGGGASSYELTQDPAVSVALGQTVRITCQGDSLRSYYASWYQQKPGQAPVLVIYGKNNRPSGIPDRFSGSSSGNTASLTVTGAQAEDEADYYCSSRDSSDDVVFGGGTQLTVL
B13: positive control scFv G03 (scFv)
scFv: EVQLVQSGAEVKKPGATVKISCKVSGYTFTSYWMHWVQQAPGKGLEWIGYINPGTGYIEYNQKFKDRVTITADKSTDTAYMELSSLRSEDTAVYYCASSTAPFDYWGQGTLVTVSSGGGGSGGGGSGGGASEIVLTQSPGTLSLSPGERATLSCKASQDIKSYLSWYQQKPGQAPRLLIYYATRLADGIPDRFSGSGSGTDFTLTISRLEPEDFAVYYCLQYDESPYTFGQGTKLEIK
B14: scFv 2447_3A09 (scFv)
scFv: EVQLLESGGGLVQPGRSLRLSCAATGFTFDDYAMHWVRQAPGKGLEWVSGISWNSGSIGYADSVKGRFTISRDNAKNSLYLQMNSLRAEDTASYYCAKDVSSGWYWYAFDIWGQGTLVTVSSGGGGSGGGGSGGGASSYELTQDPAVSVALGQTVRITCQGDSLRSYYASWYQQKPGQAPVLVIYGKNNRPSGIPGRFSGSSSGNTASLTVTGAQAEDEADYYCNSRDSGGSVVFGGGTKLTVL
notes: also called #5
B15: scFv 2447_3A12 (scFv)
scFv: EVQLVQSGAEVKKPGASVKVSCKASGYTFTSYGISWVRQAPGQGLEWMGWISAYNGNTNYAQKLRGRVTMTTDTSTSTAYMELRSLRSDDTAVYYCARDPHILTGYYRGGWFDPWGQGTLVTVSSGGGGSGGGGSGGGASSYELTQDPAVSVVLGQTVRITCQGDSLRSYYASWYQQKPGQAPVLVIYGKNNRPSGIPDRFSGSSSGNTASLTITGAQAEDEADYYCNSRDSSGNHRVFGGGTKLTVL
notes: also called #6

Usually Kd stands for a measure of binding affinity in units of concentration. The EC50 is the concentration at which the effect is half-maximal. Read a low EC50 as higher potency in that assay.

One experiment addresses T1, Human MUC1 protein. Put plainly: SPR, Biacore T200; scFv-Fc on anti-human IgG (Fc) CM5 chip, human MUC1 protein injected at 25-400 nM. As to the method:
Affinity of scFv-Fc antibody including the scFv for mucin1 antigen was measured using Biacore T200 (GE healthcare). Anti-human IgG (Fc) antibody (GE healthcare, Cat. No. BR-1008-39, final concentration of 25 ug/mL) was applied at a rate of 5 uL/min for 360 seconds on a Series S Sensor Chip CM5 (GE healthcare, Cat. No. BR-1005-30) using an Amine Coupling Kit (GE healthcare, Cat. No. BR-1000-50) and immobilized at about 5000-7000 RU.
On the technique in general: In SPR one partner is held on a chip, and binding of the other changes the refractive index at the surface.
With B1, the affinity, expressed as Kd, was 320 nM.

As for B2, the Kd is 51.5 nM. Compared with the last molecule, the Kd is about 6.2-fold lower. On the same count and under the same terms, the result for B3 reads 24 nM; that for B4, 27.6 nM. On the same count and under the same terms, the value for B5 was 62.1 nM. The same measure, in the same setting: the result for B6 reads 94.8 nM. As to B7, the Kd amounted to 39.9 nM. The same measure, in the same setting: the value for B8 was 58.8 nM. The molecule B9 gave a Kd of 51.7 nM. On the same count and under the same terms, the value for B10 was 13.8 nM.

The next experiment concerns the target T2, C subunit of human MUC1 expressed in …. Briefly: flow cytometry (PE MFI, corrected to G03 at 380 ug/mL) on HEK293T-v1 cells expressing MUC1 C subunit. On the procedure: The soluble scFv prepared in Example 1 was diluted 5-fold to prepare a total of 8 serial dilutions. Each serial dilution was 380 μg/mL, 76 μg/mL, 15.2 μg/mL, 3.04 μg/mL, 0.608 μg/mL, 0.1216 μg/mL, 0.02432 μg/mL, 0.004864 μg/mL. A buffer used in soluble scFv dilution and cell washing was PBS containing 2% FBS and 10 mM EDTA. Four kinds of cells were prepared at a density of 1×10⁶/mL, respectively, and put in a 96 well U-bottom cell culture plate at a density of 1×10⁵/100 μl/well, followed by centrifugation at 1500 RPM for 5 minutes. The soluble scFv prepared previously was treated in an amount of 50 μl/well. The cells were left at 4° C. for 1 hour. 150 μl/well of the cell washing buffer was added thereto and then mixed, followed by centrifugation at 1500 RPM for 5 minutes. The supernatant was discarded, and 200 μl/well of the cell washing buffer was added thereto and then mixed, followed by centrifugation at 1500 RPM for 5 minutes. A goat anti-human IgG Fc-biotin antibody (Invitrogen, A18821) was diluted 500-fold, and 50 μl/well thereof was treated. The cells were left at 4° C. for 20 minutes. 150 μl/well of the cell washing buffer was added thereto and then mixed, followed by centrifugation at 1500 RPM for 5 minutes. The supernatant was discarded, and 200 μl/well of the cell washing buffer was added thereto and then mixed, followed by centrifugation at 1500 RPM for 5 minutes. PE-Streptavidin (BD Pharmigen, 554061) was diluted 1000-fold, and 50 μl/well thereof was treated. The cells were left at 4° C. for 20 minutes. 150 μl/well of the cell washing buffer was added thereto and then mixed, followed by centrifugation at 1500 RPM for 5 minutes. The supernatant was discarded, and 200 μl/well of the cell washing buffer was added thereto and then mixed, followed by centrifugation at 1500 RPM for 5 minutes. 80 μl/well of the cell washing buffer was added and mixed, followed by flow cytometry.
The affinity of the soluble scFv to the mucin1-expressing cells was confirmed by PE MFI values from the results of the flow cytometry. Each cell line without soluble scFv was stained with another fluorescent antibody (Goat anti-human IgG Fc-biotin antibody, PE-Streptavidin), which was used as a negative control value, and each cell line was treated with G03 at a concentration of 380 μg/mL, which was used as a positive control value, and MFI value was corrected as follows: […]
Background: Flow cytometry measures light scatter and fluorescence of single cells or particles in a stream.
In turn, B11 came in with an EC50 of 1.73 µg/mL.

For B12, a half-maximal effect (EC50) was put at 4.78 µg/mL.

The molecule B13 showed an EC50 of 3.46 µg/mL. On to B14, for which the EC50 amounted to 1.96 µg/mL. Still for that read-out and setting: the result for B15 reads 1.47 µg/mL.
